Data from paper PMC10269683.

Target: CcpA (Streptococcus pneumoniae D39) (UniProt A0A0H2ZQ65)
Assay: EMSA
Conditions: EMSA: 10 mM Tris-HCl pH 7.4, 1 mM DTT, 1 mM EDTA, 50 mM KCl, 5% glycerol, 50 ug/mL BSA, 0.05% NP-40, 20 min 37 C; footprinting binding 30 min 25 C

Sequence: GCTACAAACTGTTCCAATTTAACTGTGTTTTTCATAATAAAATCTCCTAAAATGTTTTTTCTTGTAAGCTAACTTACAAAAACCATTATACAAAATGGAATTTCGTTTTAGATAAAATTCTCTCAACTGTCATTTTTTTCTCCCAAAGTGTACTTTTTTAAGAAAAAAGCCGGGAAAATTCCCAGCTTTGCTATTATATTGATCCCAGCAGGATTCGAACCTGCGACCGTTCGCTTAGAAGGCGAATGCTCTATC (double strand) [P240 (PcomCDE)]
- binding: binds
